We go through twelve molecules from paper PMC3138255 (The Journal of Biological Chemistry, 2011).

The target in data set [1] is Rnd2 GTPase (residues 1-227), loaded with GMPPNP (UniProt P52198). Put plainly: ITC + SPR.
Data set [2] deals with Rnd1 GTPase (residues 5-200), loaded with GMPPNP (UniProt Q92730). In words: ITC + SPR.
In data set [3] the target is Rnd1 GTPase, wild type, construct of this paper (UniProt Q92730). In words: Isothermal titration calorimetry. The note with it: pH 7.0, 25 °C, 50 mM NaCl, 4 mM MgCl2, 50 mM phosphate buffer. For orientation: Isothermal titration calorimetry measures the heat released or taken up as one component is titrated into another.
Rnd1 GTPase, wild type, construct of this paper, sequence (Q92730 whole entry): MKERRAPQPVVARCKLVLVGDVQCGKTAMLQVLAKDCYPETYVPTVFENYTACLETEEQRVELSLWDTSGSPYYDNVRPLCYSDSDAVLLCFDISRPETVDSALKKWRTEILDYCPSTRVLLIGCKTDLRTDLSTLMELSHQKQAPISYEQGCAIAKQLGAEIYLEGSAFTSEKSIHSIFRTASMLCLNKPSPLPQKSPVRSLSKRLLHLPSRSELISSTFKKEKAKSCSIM
Data set [4] has as its target Rnd1 GTPase as used in the quoted work (ref 39, Hota & Buck 2009) (UniProt Q92730). In words: Not stated in this article. The note with it: cited from earlier work.
Data set [5] concerns the target T1, Rnd1 GTPase (residues 5-200), loaded with GMPPNP (UniProt Q92730 5-200).
T1 sequence (looked up): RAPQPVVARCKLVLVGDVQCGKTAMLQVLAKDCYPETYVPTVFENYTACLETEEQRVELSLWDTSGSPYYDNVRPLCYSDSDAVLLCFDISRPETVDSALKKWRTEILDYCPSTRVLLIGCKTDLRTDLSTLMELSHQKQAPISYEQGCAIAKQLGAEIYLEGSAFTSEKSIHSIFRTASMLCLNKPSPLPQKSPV
Put plainly: ITC.

Data set [6] deals with T2, Rnd2 GTPase (residues 1-227), loaded with GMPPNP (UniProt P52198 1-227).
T2 sequence (looked up): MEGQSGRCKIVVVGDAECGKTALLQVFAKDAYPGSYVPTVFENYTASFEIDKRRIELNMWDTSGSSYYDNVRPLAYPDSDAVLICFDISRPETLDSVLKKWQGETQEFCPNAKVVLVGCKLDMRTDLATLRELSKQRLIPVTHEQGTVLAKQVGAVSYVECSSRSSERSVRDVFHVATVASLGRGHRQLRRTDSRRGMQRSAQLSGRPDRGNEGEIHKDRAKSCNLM
In words: ITC.

Data set [7] deals with the molecule itself. Put plainly: SEC. (In general: Size exclusion chromatography separates by hydrodynamic size, large species first.)
The target in data set [8] is T3, Rnd1 GTPase Y114F (UniProt Q92730 5-200, Y114F).
T3 sequence (looked up): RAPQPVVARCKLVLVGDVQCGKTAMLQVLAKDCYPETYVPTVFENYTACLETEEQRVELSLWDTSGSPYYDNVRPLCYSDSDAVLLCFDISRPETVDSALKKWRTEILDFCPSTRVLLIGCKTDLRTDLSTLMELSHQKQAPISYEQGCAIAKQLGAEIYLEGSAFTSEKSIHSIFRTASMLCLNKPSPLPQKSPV
In words: ITC.

Rnd1 GTPase as used in the quoted work (ref 39, Hota & Buck 2009), sequence (Q92730 whole entry, the tested form may be a part): as the sequence (Q92730 whole entry) above

“plexin-C1 Rho GTPase binding domain (RBD), residues 1198-1305 (from UniProt O60486 1198-1305) (domain or fragment)”: the Kd in data set [1] and in data set [2] was more than 50 µM each time.

Turning to “Plexin-B1 Rho GTPase binding domain (RBD), wild type, construct of this paper”, in data set [3], the Ka is 1.8 10^5 M^-1, the Kd is 5.5 µM and the ΔG is -7.1 kcal/mol.

Turning to “Plexin-B1 RBD as used in the quoted work (ref 39, Hota & Buck 2009)”, the Kd entry was “∼3.1 μM” in data set [4] (pH 6.4) and “∼5.5 μM” in data set [4] (pH 6.8).

B1: plexin-C1 RBD K1267L (domain or fragment)
chain: TVALNVVFEKIPENESADVCRNISVNVLDCDTIGQAKEKIFQAFLSKNGSPYGLQLNEIGLELQMGTRQLELLDIDSSSVILEDGITKLNTIGHYEISNGSTIKVFKK
As to B1, in data set [5], the Ka amounted to 100000 M⁻¹, the Kd is 10 µM and the dH is -1.9 kcal/mol. Also, in data set [6], the Ka is 90000 M⁻¹, the dissociation constant Kd turned out to be 11.1 µM and the dH is -0.6 kcal/mol.

B2: plexin-C1 RBD T1264V/R1265V (domain or fragment)
chain: TVALNVVFEKIPENESADVCRNISVNVLDCDTIGQAKEKIFQAFLSKNGSPYGLQLNEIGLELQMGVVQKELLDIDSSSVILEDGITKLNTIGHYEISNGSTIKVFKK
In data set [5], B2 displayed a Ka of 360000 M⁻¹, a Kd of 2.6 µM and a dH of -3.4 kcal/mol. In addition, in data set [6], the Ka came to 120000 M⁻¹, the Kd worked out at 8.3 µM and the dH was -1.5 kcal/mol.

B3: plexin-D1 RBD Y1618L (domain or fragment)
chain: AKPRNLNVSFQGCGMDSLSVRAMDTDTLTQVKEKILEAFCKNVPYSQWPRAEDVDLEWFASSTQSLILRDLDDTSVVEDGRKKLNTLAHYKIPEGASLAMSLIDKKDNTLGRVKDLDTEKYFHLVL
In data set [5], B3 had a Ka of 190000 M⁻¹, a Kd of 5.2 µM and a dH of -3.1 kcal/mol. Besides, in data set [6], the Ka was determined as 70000 M⁻¹, binding was characterised by a dissociation constant (Kd) of 14.2 µM and the dH is -1.6 kcal/mol.

B4: plexin-D1 Rho GTPase binding domain (RBD), residues 1553-1678 (domain or fragment, human, UniProt Q9Y4D7 1553-1678, looked up)
chain: AKPRNLNVSFQGCGMDSLSVRAMDTDTLTQVKEKILEAFCKNVPYSQWPRAEDVDLEWFASSTQSYILRDLDDTSVVEDGRKKLNTLAHYKIPEGASLAMSLIDKKDNTLGRVKDLDTEKYFHLVL
In data set [6], B4 registered a Ka of 60000 M⁻¹, a Kd of 16.6 µM and a dH of -0.4 kcal/mol.

B5: plexin-D1 RBD S1614V/T1615A (domain or fragment)
chain: AKPRNLNVSFQGCGMDSLSVRAMDTDTLTQVKEKILEAFCKNVPYSQWPRAEDVDLEWFASVAQSYILRDLDDTSVVEDGRKKLNTLAHYKIPEGASLAMSLIDKKDNTLGRVKDLDTEKYFHLVL
In data set [5], B5 had a Ka of 50000 M⁻¹, a Kd of 20 µM and a dH of 1.3 kcal/mol. In data set [6], this molecule gave a Ka of 130000 M⁻¹, a Kd of 7.7 µM and a dH of -1.4 kcal/mol.

B6: plexin-A2 Rho GTPase binding domain (RBD), residues 1490-1600 (domain or fragment, human, UniProt O75051 1490-1600, looked up)
chain: LIRQQIEYKTLILNCVNPDNENSPEIPVKVLNCDTITQVKEKILDAVYKNVPYSQRPRAVDMDLEWRQGRIARVVLQDEDITTKIEGDWKRLNTLMHYQVSDRSVVALVPK
As to B6, in data set [7], the “stoichiometry N” value worked out at 2. Moreover, in data set [5], the Ka came out at 140000 M⁻¹, the Kd was determined as 7 µM and the dH was -8 kcal/mol. Moreover, in data set [8], the Ka turned out to be 100000 M⁻¹; the affinity, expressed as Kd, was 10 µM; the dH is -4.1 kcal/mol. Moreover, in data set [6], the Ka is 90000 M⁻¹, the Kd came to 10.7 µM and the dH is -1.2 kcal/mol.

B7: plexin-B1 Rho GTPase binding domain (RBD), residues 1746-1852 (domain or fragment, human, UniProt O43157 1746-1852, looked up)
chain: YRPLTLNALLAVGPGAGEAQGVPVKVLDCDTISQAKEKMLDQLYKGVPLTQRPDPRTLDVEWRSGVAGHLILSDEDVTSEVQGLWRRLNTLQHYKVPDGATVALVPC
Consider B7, for which, in data set [5], the Ka was found to be 180000 M⁻¹, the Kd was 5.5 µM and the dH was -6.7 kcal/mol. In data set [8], this molecule had a Ka of 180000 M⁻¹, a Kd of 5.5 µM and a dH of -2.5 kcal/mol. In data set [6], the Ka stood at 40000 M⁻¹, the Kd is more than 20 µM and the dH was -0.2 kcal/mol.

B8: plexin-B1 RBD L1815Y (domain or fragment)
chain: YRPLTLNALLAVGPGAGEAQGVPVKVLDCDTISQAKEKMLDQLYKGVPLTQRPDPRTLDVEWRSGVAGHYILSDEDVTSEVQGLWRRLNTLQHYKVPDGATVALVPC
In data set [5], B8 gave a Ka of 70000 M⁻¹, a Kd of 14.1 µM and a dH of -1.4 kcal/mol. In data set [6], this molecule had a Ka of 90000 M⁻¹, a Kd of 9.8 µM and a dH of -1.6 kcal/mol.

B9: plexin-B1 RBD L1815K (domain or fragment)
chain: YRPLTLNALLAVGPGAGEAQGVPVKVLDCDTISQAKEKMLDQLYKGVPLTQRPDPRTLDVEWRSGVAGHKILSDEDVTSEVQGLWRRLNTLQHYKVPDGATVALVPC
In data set [6], B9 registered a Ka of 80000 M⁻¹, a Kd of 20 µM and a dH of -3.2 kcal/mol.

A word on the Kd: it is the constant that tells how readily two partners part at equilibrium. Broadly, the stoichiometry N is a count of units in the complex or per binding partner.
